{"source": "patent US20220332804A1", "about": "(CSL INNOVATION, published 2022)", "experiment_in_all_cases": "SPR, KD relative to WT C2;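 further: biacore SPR at 37 °C, anti-C2 mAbs captured on anti-human IgG chips with alanine or serine point mutants of C2 as analyte, KD from 1:1 fit compared with wild-type C2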", "key": {"human C2 E686A": {"biological_target": "T1, human C2 E686A (human, UniProt P06681 21-752)", "T1 sequence": "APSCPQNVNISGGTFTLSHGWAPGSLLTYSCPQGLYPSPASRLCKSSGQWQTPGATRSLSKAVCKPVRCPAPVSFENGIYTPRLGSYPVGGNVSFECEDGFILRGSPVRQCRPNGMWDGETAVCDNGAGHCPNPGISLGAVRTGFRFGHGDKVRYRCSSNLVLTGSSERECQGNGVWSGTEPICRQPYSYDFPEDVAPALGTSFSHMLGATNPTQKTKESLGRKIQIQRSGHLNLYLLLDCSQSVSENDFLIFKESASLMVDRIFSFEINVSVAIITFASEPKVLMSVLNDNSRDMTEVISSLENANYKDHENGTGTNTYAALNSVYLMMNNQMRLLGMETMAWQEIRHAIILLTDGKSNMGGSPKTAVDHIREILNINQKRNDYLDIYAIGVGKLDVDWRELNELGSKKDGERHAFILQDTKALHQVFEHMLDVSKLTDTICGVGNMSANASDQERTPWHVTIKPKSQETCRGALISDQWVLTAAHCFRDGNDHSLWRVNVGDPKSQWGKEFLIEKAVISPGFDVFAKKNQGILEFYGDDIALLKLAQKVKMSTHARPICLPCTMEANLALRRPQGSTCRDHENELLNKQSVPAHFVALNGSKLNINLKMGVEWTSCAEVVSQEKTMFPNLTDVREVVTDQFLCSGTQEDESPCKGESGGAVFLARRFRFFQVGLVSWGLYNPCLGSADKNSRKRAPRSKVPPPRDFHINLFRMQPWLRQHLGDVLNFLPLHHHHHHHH"}, "human C2 G466A": {"biological_target": "T2, human C2 G466A (human, UniProt P06681 21-752)", "T2 sequence": "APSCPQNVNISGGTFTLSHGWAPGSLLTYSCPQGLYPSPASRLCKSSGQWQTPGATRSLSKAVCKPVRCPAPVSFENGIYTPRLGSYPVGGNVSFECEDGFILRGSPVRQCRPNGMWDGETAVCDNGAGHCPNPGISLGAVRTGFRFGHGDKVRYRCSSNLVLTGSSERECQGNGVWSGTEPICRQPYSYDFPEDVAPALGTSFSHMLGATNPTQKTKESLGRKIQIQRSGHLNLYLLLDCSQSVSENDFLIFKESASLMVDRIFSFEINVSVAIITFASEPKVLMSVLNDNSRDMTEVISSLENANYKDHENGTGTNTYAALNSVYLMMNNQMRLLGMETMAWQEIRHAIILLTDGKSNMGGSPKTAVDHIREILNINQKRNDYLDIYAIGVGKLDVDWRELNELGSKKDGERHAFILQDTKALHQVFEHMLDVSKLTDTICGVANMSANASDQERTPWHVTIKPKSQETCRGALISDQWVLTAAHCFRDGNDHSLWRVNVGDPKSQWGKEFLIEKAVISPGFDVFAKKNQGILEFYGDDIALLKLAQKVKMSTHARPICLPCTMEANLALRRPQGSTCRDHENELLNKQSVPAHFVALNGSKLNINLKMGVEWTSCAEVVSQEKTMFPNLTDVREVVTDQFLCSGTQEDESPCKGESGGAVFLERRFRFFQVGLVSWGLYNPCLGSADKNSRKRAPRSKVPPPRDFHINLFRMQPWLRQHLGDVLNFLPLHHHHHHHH"}, "human C2 N325A": {"biological_target": "T3, human C2 N325A (human, UniProt P06681 21-752)", "T3 sequence": "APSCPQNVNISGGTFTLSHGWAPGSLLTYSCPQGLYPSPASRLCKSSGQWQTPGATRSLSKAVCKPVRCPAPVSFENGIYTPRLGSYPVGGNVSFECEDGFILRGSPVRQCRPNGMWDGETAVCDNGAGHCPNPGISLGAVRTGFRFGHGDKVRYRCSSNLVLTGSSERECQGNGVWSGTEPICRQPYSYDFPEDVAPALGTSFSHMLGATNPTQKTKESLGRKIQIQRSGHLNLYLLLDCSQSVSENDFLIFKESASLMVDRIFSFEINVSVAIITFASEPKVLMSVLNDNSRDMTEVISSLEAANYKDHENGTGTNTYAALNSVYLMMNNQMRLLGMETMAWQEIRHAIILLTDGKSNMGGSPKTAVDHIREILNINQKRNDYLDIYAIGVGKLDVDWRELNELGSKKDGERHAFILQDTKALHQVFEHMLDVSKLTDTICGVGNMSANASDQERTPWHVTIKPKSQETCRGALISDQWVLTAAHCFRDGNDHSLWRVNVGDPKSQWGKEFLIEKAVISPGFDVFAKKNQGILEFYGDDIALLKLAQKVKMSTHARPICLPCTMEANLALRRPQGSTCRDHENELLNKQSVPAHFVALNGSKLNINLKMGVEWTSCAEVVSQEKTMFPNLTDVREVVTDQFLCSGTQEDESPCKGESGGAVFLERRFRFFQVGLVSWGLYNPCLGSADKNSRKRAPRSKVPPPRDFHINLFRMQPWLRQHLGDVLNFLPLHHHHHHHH"}, "human C2 N380A": {"biological_target": "T4, human C2 N380A (human, UniProt P06681 21-752)", "T4 sequence": "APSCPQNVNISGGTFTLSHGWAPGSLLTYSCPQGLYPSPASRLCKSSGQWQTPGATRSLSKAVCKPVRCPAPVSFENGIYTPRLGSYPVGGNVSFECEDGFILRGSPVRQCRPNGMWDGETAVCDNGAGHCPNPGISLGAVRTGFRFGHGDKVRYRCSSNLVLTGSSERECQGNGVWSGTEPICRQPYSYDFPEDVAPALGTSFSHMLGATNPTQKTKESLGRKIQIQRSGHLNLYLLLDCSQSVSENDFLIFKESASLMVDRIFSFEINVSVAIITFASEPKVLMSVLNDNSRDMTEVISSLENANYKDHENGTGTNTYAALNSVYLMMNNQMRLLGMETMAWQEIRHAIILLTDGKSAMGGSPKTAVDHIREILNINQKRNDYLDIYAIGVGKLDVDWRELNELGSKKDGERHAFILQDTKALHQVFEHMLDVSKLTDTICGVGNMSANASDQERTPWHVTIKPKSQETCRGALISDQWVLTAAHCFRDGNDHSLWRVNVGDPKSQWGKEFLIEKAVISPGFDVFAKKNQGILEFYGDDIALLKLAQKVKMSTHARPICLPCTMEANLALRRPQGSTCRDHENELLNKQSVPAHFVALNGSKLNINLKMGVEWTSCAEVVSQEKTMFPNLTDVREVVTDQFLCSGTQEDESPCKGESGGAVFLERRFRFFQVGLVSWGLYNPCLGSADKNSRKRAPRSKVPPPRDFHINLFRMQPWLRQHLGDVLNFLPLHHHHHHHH"}}}
{"binder": "RF16-242 (antibody, human IgG4 S228P, lambda, V domains shown, pH-dependent anti-C2 antibody from a phage display library) VH: EVQLLQSGAEVKKPGESLKISCKGSGYSFTSYWIGWVRQMPGKGLEWMGIIYPGDSDTRYSPSFQGQVTISADKSISTAYLQWSSLKASDTAMYYCARRGHYGDYFDYWGQGTLVTVSS VL: SYELTQPPSVSVSPGQTARITCSGDALPKKYAYWYHQKSGQAPVLVIYEDRRRPSEIPERFSGSSSGTMATLTITGAQVEDEGVYFCYSRDRAGNQRVFGGGTQLTVLG", "values": [{"measurement": "Fold diff", "setting": "human C2 E686A", "value": 5, "unit": "fold"}, {"measurement": "Fold diff", "setting": "human C2 G466A", "value": 4, "unit": "fold"}, {"measurement": "Fold diff", "setting": "human C2 N325A", "value": 6, "unit": "fold"}, {"measurement": "Fold diff", "setting": "human C2 N380A", "value": 1, "unit": "fold"}]}
